# Measurements from paper PMC7217052, “Rapid Biophysical Characterization and NMR Spectroscopy Structural Analysis of Small Proteins from Bacteria and Archaea” (Chembiochem, 2020).
# B1: SP-22 small protein from Haloferax volcanii (natural protein)
# chain: MNKAHFEVFVDAADKYRWRLVHDNGNILADSGEGYASKQKAKQGIESVKRNAPDADVIEA
# notes: source: heterologously expressed in E. coli, purified (purity above 95 %)
# Biological target: the molecule itself
# Test: solution-state NMR structure; 5 mM protein, 50 mM sodium phosphate buffer pH 7.5, 100 mM NaCl, 298 K; best 20 structures shown as a symmetrical dimer
protein,measurement,value
B1,stoichiometry N,2
